# From publication doi:10.1101/2020.06.03.131664 (2020)
# Experiments:
# Test in all cases: SPR; bivalent fitting model
# [1] = molecular target: HAdV-D26 capsid (human adenovirus type 26, species D, replication-defective vector particle) (human adenovirus type 26 (species D))
# [2] = molecular target: HAdV-B35 capsid (human adenovirus type 35, species B, replication-defective vector particle) (human adenovirus type 35 (species B))
# [3] = molecular target: HAdV-C5 capsid (human adenovirus type 5, species C, replication-defective vector particle) (human adenovirus type 5 (species C), UniProt P04133 1-952)
# Chain of HAdV-C5 capsid (human adenovirus type 5, species C, replication-defective vector particle) (P04133 whole entry, looked up): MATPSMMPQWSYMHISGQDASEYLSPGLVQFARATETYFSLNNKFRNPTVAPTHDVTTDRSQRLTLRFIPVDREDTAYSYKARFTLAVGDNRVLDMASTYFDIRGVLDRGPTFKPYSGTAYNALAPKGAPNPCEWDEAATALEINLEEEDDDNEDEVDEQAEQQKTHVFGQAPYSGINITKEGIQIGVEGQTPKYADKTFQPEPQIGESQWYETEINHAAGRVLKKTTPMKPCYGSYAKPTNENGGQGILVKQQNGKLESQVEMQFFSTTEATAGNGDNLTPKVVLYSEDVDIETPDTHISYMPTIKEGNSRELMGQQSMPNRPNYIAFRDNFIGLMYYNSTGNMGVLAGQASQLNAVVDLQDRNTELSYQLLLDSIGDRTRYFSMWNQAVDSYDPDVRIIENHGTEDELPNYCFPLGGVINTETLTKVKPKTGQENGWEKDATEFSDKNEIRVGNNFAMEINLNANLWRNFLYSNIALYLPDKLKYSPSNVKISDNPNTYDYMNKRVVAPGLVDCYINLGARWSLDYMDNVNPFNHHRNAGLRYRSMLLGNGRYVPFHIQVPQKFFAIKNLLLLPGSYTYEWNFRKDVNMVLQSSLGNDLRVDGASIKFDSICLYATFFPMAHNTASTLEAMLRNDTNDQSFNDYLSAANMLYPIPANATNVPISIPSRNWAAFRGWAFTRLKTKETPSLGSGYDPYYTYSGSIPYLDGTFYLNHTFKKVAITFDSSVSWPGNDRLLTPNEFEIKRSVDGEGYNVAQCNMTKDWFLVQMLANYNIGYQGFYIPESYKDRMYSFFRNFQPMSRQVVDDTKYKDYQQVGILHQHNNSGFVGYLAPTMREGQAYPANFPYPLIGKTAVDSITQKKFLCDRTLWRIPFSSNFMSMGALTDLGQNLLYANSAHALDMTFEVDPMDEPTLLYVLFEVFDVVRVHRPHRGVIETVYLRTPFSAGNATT
binder,measurement,setting,value
human lactoferrin (natural protein) GRRRSVQWCAVSQPEATKCFQWQRNMRKVRGPPVSCIKRDSPIQCIQAIAENRADAVTLDGGFIYEAGLAPYKLRPVAAEVYGTERQPRTHYYAVAVVKKGGSFQLNELQGLKSCHTGLRRTAGWNVPIGTLRPFLNWTGPPEPIEAAVARFFSASCVPGADKGQFPNLCRLCAGTGENKCAFSSQEPYFSYSGAFKCLRDGAGDVAFIRESTVFEDLSDEAERDEYELLCPDNTRKPVDKFKDCHLARVPSHAVVARSVNGKEDAIWNLLRQAQEKFGKDKSPKFQLFGSPSGQKDLLFKDSAIGFSRVPPRIDSGLYLGSGYFTAIQNLRKSEEEVAARRARVVWCAVGEQELRKCNQWSGLSEGSVTCSSASTTEDCIALVLKGEADAMSLDGGYVYTAGKCGLVPVLAENYKSQQSSDPDPNCVDRPVEGYLAVAVVRRSDTSLTWNSVKGKKSCHTAVDRTAGWNIPMGLLFNQTGSCKFDEYFSQSCAPGSDPRSNLCALCIGDEQGENKCVPNSNERYYGYTGAFRCLAENAGDVAFVKDVTVLQNTDGNNNEAWAKDLKLADFALLCLDGKRKPVTEARSCHLAMAPNHAVVSRMDKVERLKQVLLHQQAKFGRNGSDCPDKFCLFQSETKNLLFNDNTECLARLHGKTTYEKYLGPQYVAGITNLKKCSTSPLLEACEFLRK,Kd,[1],2550 nM
same,Kd,[2],54 µM
same,Kd,[3],800 nM
